# B1: Pistol ribozyme (parent)
# chain: GGGUCGUUGUUCCAUAAUCGCGUGGAUAUGGCACGCAAGUUUCUACCGGGCACCGUAAAUGUCCGACUGGAGCCGUUCGGGCGGCUAUAAACAGACCUCAGGCCCGAAGCGUGGCGGCACCUGCCGCCGGUGGUAAAAAAGAUCGGAAGAGCACACGUCU
# Variants of: B1
# Test: aptazyme ON/OFF ratio, guanine; higher = stronger switching; co-transcriptional cleavage with and without guanine
row,Variant,aptazyme ON/OFF ratio
1,U8G U10C U11A C12A C13G,1.11
2,U8G U11C C12G C13A,1.25
3,U8G U11C C12G C13G,1.3
4,U8G U11C C12G C13U,1.2
5,U8G G9U U11C C12A C13G,1.08
6,U8G G9U U11C C12A C13A,1.09
7,U8G G9U U11C C12A C13U,1.11
8,U8G G9U U10G U11C C12U,1.04
9,U8G G9U U10G U11C C12G,1.03
10,U8G G9U U10G U11C C12A,1.02
11,U8G U11A C12U C13G,1.12
12,U8G U11A C12U C13U,1.33
13,U8G U11A C12U C13A,1.18
14,U8G G9U U10G U11A C12G,1.06
15,U8G G9U U10G U11A C12U,1.03
16,U8G G9U U10G U11A C12A,1.08
17,U8G U10G U11A C13U,1.33
18,U8G U10G U11A C13A,1.16
19,U8G U10G U11A C13G,1.18
20,U8G U10A C12A C13G,1.05
21,U8G U10A C12A C13U,1.27
22,U8G U10A C12A C13A,1.26
23,U8G U10A U11G C13G,1.04
24,U8G U10A U11G C13U,1.04

row,Variant,aptazyme ON/OFF ratio
1,U8G U10A U11G C13A,1.08
2,U8G U10C U11A C12U C13G,1.14
3,U8G U10C U11A C12U C13U,1.22
4,U8G U10C U11A C12U C13A,1.14
5,U8G G9U U11C C12G C13G,1.06
6,U8G G9U U11C C12G C13A,1.04
7,U8G G9U U11C C12G C13U,1.13
8,U8G U10G U11A C12G C13G,1.17
9,U8G U10G U11A C12G C13A,1.13
10,U8G U10G U11A C12G C13U,1.34
11,U8G U10C U11G C12G C13U,1.2
12,U8G U10C U11G C12G C13G,1.18
13,U8G U10C U11G C12G C13A,1.17
14,U8G U10C U11A C12G,1.26
15,U8G U10C U11A C12A,1.39
16,U8G U10C U11A C12U,1.28
17,U8G U10G C12U C13U,1.2
18,U8G U10G C12U C13A,1.3
19,U8G U10G C12U C13G,1.18
20,U8G U10A U11G C12A C13A,1.11
21,U8G U10A U11G C12A C13G,1.12
22,U8G U10A U11G C12A C13U,1.12
23,U8G U11G C13A,1.04
24,U8G G9U U10G U11C C12U C13A,1.03

row,Variant,aptazyme ON/OFF ratio
1,U8G G9U U10G U11C C12U C13U,1.03
2,U8G G9U U10G U11C C12U C13G,1.03
3,U8G U10G U11G,1.45
4,U8G U10G U11A,1.26
5,U8G U10G U11C,1.05
6,U8G U11G C12U C13G,1.24
7,U8G U11G C12U C13A,1.22
8,U8G U11G C12U C13U,1.21
9,U8G U10C U11C C12G C13A,1.1
10,U8G U10C U11C C12G C13U,1.15
11,U8G U10C U11C C12G C13G,1.09
12,U8G G9U U11C C12G,1.12
13,U8G G9U U11C C12A,1.12
14,U8G G9U U11C C12U,1.04
15,U8G U10G U11C C12A C13G,1.08
16,U8G U10G U11C C12A C13A,1.06
17,U8G U10G U11C C12A C13U,1.09
18,U8G U11G C12A,1.44
19,U8G U11G C12U,1.33
20,U8G U11G C12G,1.18
21,U8G U11C C13G,1.17
22,U8G U11C C13A,1.19
23,U8G U11C C13U,1.37
24,U8G U11A C12U,1.46

row,Variant,aptazyme ON/OFF ratio
1,U8G U11A C12A,1.45
2,U8G U11A C12G,1.1
3,U8G U10G U11C C13U,1.04
4,U8G U10G U11C C13G,1.02
5,U8G U10G U11C C13A,1.04
6,U8G G9U U10G U11C C13G,1.04
7,U8G G9U U10G U11C C13A,1.02
8,U8G G9U U10G U11C C13U,1.03
9,U8G U10A C12A,1.48
10,U8G U10A C12U,1.17
11,U8G U10A C12G,1.23
12,U8G U10C U11C C12A C13G,1.11
13,U8G U10C U11C C12A C13U,1.05
14,U8G U10C U11C C12A C13A,1.1
15,U8G U11G C12G C13U,1.2
16,U8G U11G C12G C13A,1.08
17,U8G U11G C12G C13G,1.08
18,U8G U10C U11G C13U,1.05
19,U8G U10C U11G C13G,1.07
20,U8G U10C U11G C13A,1.07
21,U8G U10G C13U,1.11
22,U8G U10G C13G,1.23
23,U8G U10G C13A,1.15
24,U8G U10A U11C C13A,1.03

row,Variant,aptazyme ON/OFF ratio
1,U8G U10A U11C C13U,1.03
2,U8G U10A U11C C13G,1.02
3,U8G U11C C12U C13A,1.33
4,U8G U11C C12U C13G,1.29
5,U8G U11C C12U C13U,1.3
6,U8G U11C C12A C13A,1.23
7,U8G U11C C12A C13U,1.14
8,U8G U11C C12A C13G,1.23
9,U8G U10A U11G C12G C13A,1.31
10,U8G U10A U11G C12G C13U,1.5
11,U8G U10A U11G C12G C13G,1.14
12,U8G G9U U10G U11A C12G C13G,1.17
13,U8G G9U U10G U11A C12G C13U,1.04
14,U8G G9U U10G U11A C12G C13A,1.05
15,U8G G9U U11G C12G,1.39
16,U8G G9U U11G C12A,1.32
17,U8G G9U U11G C12U,1.27
18,U8G U10G U11C C12G,1.11
19,U8G U10G U11C C12A,1.06
20,U8G U10G U11C C12U,1.02
21,U8G U10A C12U C13G,1.32
22,U8G U10A C12U C13U,1.3
23,U8G U10A C12U C13A,1.32
24,U8G U10C U11A C12G C13U,1.27

row,Variant,aptazyme ON/OFF ratio
1,U8G U10C U11A C12G C13A,1.07
2,U8G U10C U11A C12G C13G,1.09
3,U8G U10A U11A C12A C13A,1.19
4,U8G U10A U11A C12A C13U,1.13
5,U8G U10A U11A C12A C13G,1.11
6,U8G G9U U11A C12U C13U,1.35
7,U8G G9U U11A C12U C13G,1.22
8,U8G G9U U11A C12U C13A,1.19
9,U8G U10G U11A C12U C13A,1.14
10,U8G U10G U11A C12U C13U,1.26
11,U8G U10G U11A C12U C13G,1.22
12,U8G U10A C13U,1.19
13,U8G U10A C13A,1.14
14,U8G U10A C13G,1.12
15,U8G G9U U10G U11G C12A C13U,1.05
16,U8G G9U U10G U11G C12A C13G,1.08
17,U8G G9U U10G U11G C12A C13A,1.07
18,U8G U10G C12G C13U,1.35
19,U8G U10G C12G C13G,1.14
20,U8G U10G C12G C13A,1.31
21,U8G G9U U11G C12A C13G,1.19
22,U8G G9U U11G C12A C13A,1.14
23,U8G G9U U11G C12A C13U,1.21
24,U8G G9U U10G U11G C12U C13G,1.09

row,Variant,aptazyme ON/OFF ratio
1,U8G G9U U10G U11G C12U C13A,1.09
2,U8G G9U U10G U11G C12U C13U,1.18
3,U8G U10A U11C C12U C13G,1.28
4,U8G U10A U11C C12U C13A,1.2
5,U8G U10A U11C C12U C13U,1.14
6,U8G U10G U11G C13U,1.19
7,U8G U10G U11G C13G,1.25
8,U8G U10G U11G C13A,1.21
9,U8G G9U U10G U11G C12U,1.2
10,U8G G9U U10G U11G C12G,1.13
11,U8G G9U U10G U11G C12A,1.06
12,U8G G9U U10G U11C C12A C13U,1.03
13,U8G G9U U10G U11C C12A C13G,1.02
14,U8G G9U U10G U11C C12A C13A,1.02
15,U8G U10G U11A C12A C13U,1.3
16,U8G U10G U11A C12A C13A,1.18
17,U8G U10G U11A C12A C13G,1.14
18,U8G U10G U11G C12U C13U,1.34
19,U8G U10G U11G C12U C13G,1.31
20,U8G U10G U11G C12U C13A,1.42
21,U8G G9U U11C C13A,1.1
22,U8G G9U U11C C13U,1.08
23,U8G G9U U11C C13G,1.03

# From the RNAGym collection of RNA variant scans (doi:10.1021/acssynbio.7b00057)
